The target of experiment [1] is T1, Par3 PDZ3 (rat, UniProt Q9Z340 582-685). The experiment in a line: FP.
The target in experiment [2] is T1, Par3 PDZ3. Nature of the experiment: FP; 5% 1,6-hexanediol.
The target in another experiment is Par3 PDZ2 (Rattus norvegicus). Nature of the experiment: FP.
A further experiment deals with Par3 PDZ1 (rat, UniProt Q9Z340 1-1337). The experiment in a line: FP.
Another experiment has as its target Par3 PDZ3 G600,602 A (rat, UniProt Q9Z340 582-685, G600,602 A (G600A) | G600,602 A (G602A)). The experiment in a line: FP.
Experiment [3] deals with T1, Par3 PDZ3. The experiment in a line: FP; 25% 1,6-hexanediol.
Experiment [4] concerns the target T1, Par3 PDZ3. The experiment in a line: FP; 10% 1,6-hexanediol.
Experiment [5] has as its target T1, Par3 PDZ3. The experiment in a line: FP; 0% 1,6-hexanediol.

Ends that are not written are not given here.

T1 sequence (Q9Z340 582-685): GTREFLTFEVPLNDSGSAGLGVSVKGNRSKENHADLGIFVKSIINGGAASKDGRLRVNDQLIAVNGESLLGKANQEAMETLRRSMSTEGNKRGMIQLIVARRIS
Par3 PDZ3 G600,602 A, sequence (Q9Z340 582-685 G600A/G602A): as the sequence (Q9Z340 582-685) above, with G19A, G21A counted along it
Par3 PDZ2 (Rattus norvegicus), sequence (chain, as listed by the source): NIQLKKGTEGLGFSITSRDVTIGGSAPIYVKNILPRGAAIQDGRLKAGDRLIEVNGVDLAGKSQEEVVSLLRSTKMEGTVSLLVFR
Par3 PDZ1, sequence (Q9Z340 whole entry): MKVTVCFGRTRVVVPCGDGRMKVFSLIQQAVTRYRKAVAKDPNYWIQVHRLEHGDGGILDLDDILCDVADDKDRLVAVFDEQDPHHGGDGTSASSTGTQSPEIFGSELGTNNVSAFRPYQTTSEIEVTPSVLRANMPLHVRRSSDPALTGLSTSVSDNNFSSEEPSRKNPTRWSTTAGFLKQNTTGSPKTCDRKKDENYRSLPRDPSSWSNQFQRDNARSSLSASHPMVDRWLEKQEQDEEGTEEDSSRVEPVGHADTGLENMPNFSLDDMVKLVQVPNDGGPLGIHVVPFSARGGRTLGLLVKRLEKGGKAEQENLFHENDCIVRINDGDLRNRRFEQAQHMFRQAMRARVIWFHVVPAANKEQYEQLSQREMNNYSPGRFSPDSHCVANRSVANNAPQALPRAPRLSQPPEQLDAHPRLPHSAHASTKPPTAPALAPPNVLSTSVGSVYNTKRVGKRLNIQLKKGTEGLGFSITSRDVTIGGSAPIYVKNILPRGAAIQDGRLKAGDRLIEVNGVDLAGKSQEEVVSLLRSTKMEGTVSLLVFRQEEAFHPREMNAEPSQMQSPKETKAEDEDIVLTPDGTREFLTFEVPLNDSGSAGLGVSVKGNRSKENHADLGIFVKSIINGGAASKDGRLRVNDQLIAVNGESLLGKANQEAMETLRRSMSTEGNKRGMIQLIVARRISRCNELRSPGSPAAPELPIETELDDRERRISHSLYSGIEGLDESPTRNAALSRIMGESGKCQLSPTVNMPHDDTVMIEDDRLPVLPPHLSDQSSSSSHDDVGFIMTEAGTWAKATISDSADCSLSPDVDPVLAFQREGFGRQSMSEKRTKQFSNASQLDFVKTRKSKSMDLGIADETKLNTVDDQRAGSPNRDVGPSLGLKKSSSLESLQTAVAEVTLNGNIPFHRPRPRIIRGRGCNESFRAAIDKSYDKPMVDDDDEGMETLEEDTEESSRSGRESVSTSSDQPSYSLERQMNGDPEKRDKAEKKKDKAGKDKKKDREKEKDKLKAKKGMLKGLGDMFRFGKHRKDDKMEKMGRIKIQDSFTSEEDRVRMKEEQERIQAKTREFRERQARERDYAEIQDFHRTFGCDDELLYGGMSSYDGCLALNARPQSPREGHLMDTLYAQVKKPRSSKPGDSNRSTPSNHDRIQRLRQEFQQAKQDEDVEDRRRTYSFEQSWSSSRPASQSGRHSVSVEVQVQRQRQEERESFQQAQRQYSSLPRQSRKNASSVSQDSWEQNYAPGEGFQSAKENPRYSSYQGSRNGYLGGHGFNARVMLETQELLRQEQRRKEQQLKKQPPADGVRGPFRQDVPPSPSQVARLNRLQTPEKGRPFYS

On to MRGDVSGFSL (also: FITC label, position not given here) [FITC-labeled Par6α PBM peptide], for which the Kd (commonly the equilibrium constant for the complex coming apart) with Par3 PDZ3 [1] came out at 172 µM.

LEEDGTIITL (also: FITC label, position not given here) [FITC-labeled Par6β PBM peptide]: the Kd with Par3 PDZ3 [2] turned out to be 4.9 µM; with Par3 PDZ2, 161 µM; with Par3 PDZ1 it was 104 µM; in the experiment with Par3 PDZ3 [1] it was 1.1 µM; in the experiment with Par3 PDZ3 G600,602 A it was 20 µM; with Par3 PDZ3 [3], 22 µM. The Kd with Par3 PDZ3 [4] was determined as 9.7 µM; with Par3 PDZ3 [5] it was 1.1 µM.

VEEHGPAITL (also: FITC label, position not given here) [FITC-labeled Par6γ PBM peptide]: the dissociation constant Kd with Par3 PDZ3 [1] worked out at 1.3 µM.

Source of the values: article PMC7211019 (2020).
